# Molecular target: rbbp7_human RBBP7 (UniProt Q16576)
# Sequence (Q16576 whole entry): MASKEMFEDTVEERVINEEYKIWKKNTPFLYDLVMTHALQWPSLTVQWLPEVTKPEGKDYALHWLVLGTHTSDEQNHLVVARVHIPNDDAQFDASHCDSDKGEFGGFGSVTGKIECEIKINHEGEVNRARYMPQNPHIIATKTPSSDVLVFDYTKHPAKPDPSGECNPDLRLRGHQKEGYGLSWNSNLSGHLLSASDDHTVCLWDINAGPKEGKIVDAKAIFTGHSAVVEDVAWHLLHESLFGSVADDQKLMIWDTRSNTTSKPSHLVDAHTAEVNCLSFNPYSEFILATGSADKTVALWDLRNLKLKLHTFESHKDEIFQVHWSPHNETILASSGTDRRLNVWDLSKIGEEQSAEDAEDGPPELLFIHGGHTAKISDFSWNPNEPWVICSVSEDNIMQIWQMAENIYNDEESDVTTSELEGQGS
row,effect of a mutation on the interaction,Substance
1,disrupting interaction,Histone H4 (Homo sapiens) (from UniProt P62805) I35T;R36S;L38D
2,disrupting interaction,Histone H4 (Homo sapiens) (from UniProt P62805) L38D;R40V;R41N
3,disrupting interaction,Histone H4 (Homo sapiens) (from UniProt P62805) R40V;R41N
